Experimental data: patent US20230159643A1 (H LUNDBECK A S, published 2023)
Blank lines part the entries; values can stand above or below the binder they belong to.

Columns and labels:
Sortilin SORTECD_HIS = biological target: T1, Sortilin SORTECD_HIS (human, UniProt Q99523 78-755); test: HTRF: displacement of PGRN binding to His-tagged Sortilin ECD
T1 construct: also called Sortilin-ECD-His; HIS-tagged Sortilin ECD
T1 sequence: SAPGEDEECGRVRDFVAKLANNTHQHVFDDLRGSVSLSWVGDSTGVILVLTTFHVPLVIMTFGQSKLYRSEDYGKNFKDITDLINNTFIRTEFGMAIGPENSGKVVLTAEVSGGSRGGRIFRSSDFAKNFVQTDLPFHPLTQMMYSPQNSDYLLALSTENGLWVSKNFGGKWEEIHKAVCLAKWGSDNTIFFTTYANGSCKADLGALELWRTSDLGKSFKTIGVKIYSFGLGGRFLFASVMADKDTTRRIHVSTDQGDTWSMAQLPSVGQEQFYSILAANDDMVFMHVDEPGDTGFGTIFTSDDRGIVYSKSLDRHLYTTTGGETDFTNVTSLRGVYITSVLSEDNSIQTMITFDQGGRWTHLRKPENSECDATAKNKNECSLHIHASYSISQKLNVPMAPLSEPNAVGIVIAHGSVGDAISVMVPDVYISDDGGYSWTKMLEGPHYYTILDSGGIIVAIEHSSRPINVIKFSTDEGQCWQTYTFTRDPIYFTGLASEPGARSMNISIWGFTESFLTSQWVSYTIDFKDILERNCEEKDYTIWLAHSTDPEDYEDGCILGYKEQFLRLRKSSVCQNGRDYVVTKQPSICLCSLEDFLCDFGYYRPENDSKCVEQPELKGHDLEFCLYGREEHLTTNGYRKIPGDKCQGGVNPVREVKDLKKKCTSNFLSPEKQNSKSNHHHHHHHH
Method: Dose-response evaluation of antibodies was performed with ten concentrations covering 50 pM to 1 μM in a 3-fold dilution curve. The half-maximal inhibitory concentration (IC50) values were calculated by non-linear regression using sigmoidal concentration response (variable slope) in XLfit 4 (IDBS, UK).
Experiments were performed in assay buffer (50 mM Phosphate, pH 7.0, 0.1% BSA) in a total volume of 20 μl in a Greiner 384 well, white, low volume microtiter plate, (784075, Greiner).

[1] = biological target: T2, Sortilin SORTECDBAP_hB01-05 (human/tetraodon chimera); test: BLI Octet 384RED, antibody on Protein A sensor, Sortilin construct in solution
T2 construct: Shuffle construct
T2 chain: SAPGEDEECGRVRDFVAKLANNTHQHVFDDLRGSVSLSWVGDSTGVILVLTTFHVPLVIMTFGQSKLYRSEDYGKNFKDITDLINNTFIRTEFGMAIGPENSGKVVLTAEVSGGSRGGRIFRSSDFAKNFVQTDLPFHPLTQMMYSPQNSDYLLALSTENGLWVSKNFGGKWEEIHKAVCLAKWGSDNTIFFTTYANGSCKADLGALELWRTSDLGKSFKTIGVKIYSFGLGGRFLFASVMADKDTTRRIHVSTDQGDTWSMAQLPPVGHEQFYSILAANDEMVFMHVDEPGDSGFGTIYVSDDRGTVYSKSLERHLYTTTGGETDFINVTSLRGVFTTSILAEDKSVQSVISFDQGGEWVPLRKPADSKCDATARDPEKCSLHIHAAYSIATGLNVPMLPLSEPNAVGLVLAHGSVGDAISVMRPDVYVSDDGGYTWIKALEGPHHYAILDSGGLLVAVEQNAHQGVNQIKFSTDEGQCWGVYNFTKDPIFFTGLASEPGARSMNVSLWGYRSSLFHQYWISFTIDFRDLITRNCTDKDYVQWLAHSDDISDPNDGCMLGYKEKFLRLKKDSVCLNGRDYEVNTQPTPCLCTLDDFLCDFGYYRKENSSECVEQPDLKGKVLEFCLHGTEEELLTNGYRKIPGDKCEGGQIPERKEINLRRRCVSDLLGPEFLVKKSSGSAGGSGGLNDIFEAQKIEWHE
Method: (§1) Binding kinetics of anti-Sortilin HuMab antibodies to Sortilin were determined using Octet 384RED (Fortebio, Menlo Park, USA). HuMab solutions of 2 μg/ml were made by dilution in sample diluent (ForteBio, art. No. 18-5028). Prot A sensors (ForteBio, art. no. 18-0004) were prewetted with kinetics buffer (1:10 sample diluent in PBS) for at least 600 seconds. Subsequently sensors were immobilized with HuMab solution for 600 seconds. A baseline response was obtained by dipping in kinetics buffer for 120 seconds. Association of SORTECD constructs was performed during a 1000 seconds incubation. This was followed by dissociation in kinetics buffer for 100 seconds. After dissociation, sensors were regenerated (10 mM Glycine pH 1.0) and neutralized (kinetics buffer) 3 times for 5 seconds. […] A molecular weight of 76.8 kDA was used for SORTECDHis. Data was fitted with ForteBio Analysis 6.4 software, using a global full fit.

[2] = biological target: T3, Sortilin SORTECDBAP_hB06-10 (human/tetraodon chimera); test: as above
T3 construct: Shuffle construct
T3 chain: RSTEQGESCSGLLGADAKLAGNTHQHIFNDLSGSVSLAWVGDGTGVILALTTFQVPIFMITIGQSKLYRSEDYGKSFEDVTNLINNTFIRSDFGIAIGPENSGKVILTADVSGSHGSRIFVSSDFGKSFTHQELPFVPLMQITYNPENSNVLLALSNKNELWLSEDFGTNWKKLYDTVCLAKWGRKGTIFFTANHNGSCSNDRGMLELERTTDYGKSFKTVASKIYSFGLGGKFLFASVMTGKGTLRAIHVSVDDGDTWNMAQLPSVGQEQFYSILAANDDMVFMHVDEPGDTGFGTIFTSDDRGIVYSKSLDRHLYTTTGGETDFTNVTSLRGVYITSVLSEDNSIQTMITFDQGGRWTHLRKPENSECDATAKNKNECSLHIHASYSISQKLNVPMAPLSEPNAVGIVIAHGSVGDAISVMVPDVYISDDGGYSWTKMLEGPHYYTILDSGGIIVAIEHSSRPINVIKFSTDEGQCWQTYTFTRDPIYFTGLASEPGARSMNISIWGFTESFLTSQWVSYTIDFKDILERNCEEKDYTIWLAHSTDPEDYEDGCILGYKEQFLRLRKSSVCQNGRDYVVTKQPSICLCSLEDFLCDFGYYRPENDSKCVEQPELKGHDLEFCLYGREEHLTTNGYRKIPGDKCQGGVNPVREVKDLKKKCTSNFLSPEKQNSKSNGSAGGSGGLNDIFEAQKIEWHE
Method: as §1

[3] = biological target: T3, Sortilin SORTECDBAP_hB06-10; test: BLI Octet 384RED (Example 8), Sortilin construct in solution
Method: as §1

IC50 (Sortilin SORTECD_HIS): 32 nM | binding result [1]: no binding (tested: 10 µg/ml construct) | EC50 [2]: 55.4 ng/mL
B1: 1320 (antibody, V domains shown)
VH: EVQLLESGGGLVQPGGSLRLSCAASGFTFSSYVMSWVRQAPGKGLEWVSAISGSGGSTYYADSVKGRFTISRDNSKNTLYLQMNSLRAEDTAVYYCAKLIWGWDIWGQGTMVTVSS
VL: EIVLTQSPATLSLSPGERATLSCRASQSVSSYLAWYQQRPGQAPRLLIYDASNRATGIPARFSGSGSGTDFTLSISSLEPEDFAVYYCQQRTNWSITFGQGTRLEIK
notes: also called IgG1-6003-1320; Antibody 1320

EC50 [3]: 0.72 ng/mL
B2: Antibody 5E1 (antibody, V domains shown)
VH: EVHLVESGGDLVNPGGSLKLSCEASGFIFSIYGMSWVRQTPDKRLEWVAMISSGGIYTQYPDSVKGRFTISRDNAKNTLYLQMSGLKSEDTGTYHCTRHDDSWFAYWGQGTLVTVSA
VL: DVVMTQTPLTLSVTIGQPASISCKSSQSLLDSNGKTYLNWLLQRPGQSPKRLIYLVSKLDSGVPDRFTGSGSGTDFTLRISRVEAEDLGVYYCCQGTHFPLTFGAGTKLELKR
notes: Mouse anti-human Sortilin monoclonal antibody from hybridoma (BALB/c), purified on protein G; Assigned to the D Region; also called 5E1F6; Ab 5E1

EC50 [3]: 9.6 ng/mL
B3: Antibody 1F2 (antibody, V domains shown)
VH: EVQLVESGGDLVKPGGSLKLSCAASGFTFSSYGMSWVRQTPDKRLEWVAIISSGGSYTHYPDSVKGRFTISRDNAKNTLYLQMSSLKSEDTAMYYCARLCGPLCSGYWGQGTSVTVSS
VL: QAVVTQESALTTSPGETVTLTCRSSTGAVTTSNYANWVQEKPDHLFTGLIGGTNNRAPGVPARFSGSLIGDKAALTITGAQTEDEAIYFCALWYSNHFWVFGGGTKLTVLG
notes: Mouse anti-human Sortilin monoclonal antibody from hybridoma (BALB/c), purified on protein G; Assigned to the D Region; also called 1F2F4; Ab 1F2
